In PMC2799420 one finds stoichiometry N data, which are given here for one substance.

The stoichiometry N is the number of molecules, sites or subunits per partner or assembly.

This test concerns the target Lyngbya majuscula JHB protein 7968 (Lyngbya majuscula JHB). Nature of the test: PAGE analysis; kind of PAGE (native or SDS) and conditions not told; mentioned only in the discussion.

Regarding “Lyngbya majuscula JHB protein 7968 (natural protein)”, the stoichiometry N was 2.
